Earlier results as cited in PMC5533512.

Molecular target: CD40 (Homo sapiens) (UniProt P25942)
UniProt P25942, sequence (P25942 21-193): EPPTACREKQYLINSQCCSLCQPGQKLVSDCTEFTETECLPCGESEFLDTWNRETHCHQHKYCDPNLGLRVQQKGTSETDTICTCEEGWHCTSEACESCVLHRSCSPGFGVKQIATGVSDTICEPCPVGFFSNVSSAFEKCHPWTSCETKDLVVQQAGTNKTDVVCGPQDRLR

Kd: 1 nM
Substance: dacetuzumab
